Experimental data reported in PMC4452151 (Cancer Science, 2015).

How the values were obtained:
CD3 on T cells = CD3 on T cells (Homo sapiens (endogenous, Jurkat cells …, UniProt P07766)); test: flow cytometry on cells
[1] = biological target: recombinant human CD138 protein (Homo sapiens (Human)., UniProt P18827, biotin (in the bio-layer interferometry experiment only)); test: BLI
Chain of recombinant human CD138 protein (P18827 23-254): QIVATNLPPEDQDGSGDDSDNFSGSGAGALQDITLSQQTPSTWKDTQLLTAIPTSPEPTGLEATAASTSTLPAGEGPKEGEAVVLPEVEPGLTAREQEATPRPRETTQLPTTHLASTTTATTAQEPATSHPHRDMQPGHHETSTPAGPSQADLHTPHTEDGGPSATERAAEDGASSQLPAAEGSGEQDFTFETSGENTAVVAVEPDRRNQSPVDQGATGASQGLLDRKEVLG

Chain of CD3 on T cells (Homo sapiens (P07766 23-207): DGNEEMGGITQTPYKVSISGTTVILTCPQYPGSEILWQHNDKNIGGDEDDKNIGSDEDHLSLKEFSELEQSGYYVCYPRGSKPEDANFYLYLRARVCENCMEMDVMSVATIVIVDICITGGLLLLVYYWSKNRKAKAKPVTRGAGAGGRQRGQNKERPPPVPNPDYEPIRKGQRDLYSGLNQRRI

B1: aCD138-ScFv-hIgFc (scFv, V domains shown)
VH: QVQLQQSGSELMMPGASVKISCKATGYTFSNYWIEWVKQRPGHGLEWIGEILPGTGRTIYNEKFKGKATFTADISSNTVQMQLSSLTSEDSAVYYCARRDYYGNFYYAMDYWGQGTSVTVSS
VL: DIQMTQSTSSLSASLGDRVTISCSASQGINNYLNWYQQKPDGTVELLIYYTSTLQSGVPSRFSGSGSGTDYSLTISNLEPEDIGTYYCQQYSKLPRTFGGGTKLEIK
Question: Does B1 bind (CD3 on T cells)?
Answer: Result: no binding (tested: 10 μg/mL)

Question: And the Kd [1]?
Answer: The Kd was 13.5 nM.
